Test results: US9603953B2, “Dendrimer compositions, methods of synthesis, and uses thereof” (priority 2014, dated 2017)
“Also recorded” adds a separate entry of the source.

How the values were obtained:
Wistar rats = test: Acute toxicity test after intravenous and intraperitoneal administration in the rat (Example 5); assay type: in vivo; conditions: male Wistar rats, intravenous injection
Method: Species: Wistar rats RjHan: Wi (free of specific pathogens)
Number and sex and Weight: 6 healthy adult rats (males), average weight 300 g
3 groups of male rats: • Group 1 (“G5”): 2 rats (1 and 2) receiving 0.1 ml of labeled solution of dendrimer alone, one via intravenous administration, the other intraperitoneally 1 • Group 2 (“G5-HLS”): 2 rats (3 and 4) receiving 0.1 ml of the solution of the test item “G5 dendrimer {1-nitro-1H-imidazole-methyl -1,2,3-triazol-methyl-di(2-pycolyl)amine}”, one via intravenous administration, the other intraperitoneally • Group 3 (“HLS”): 2 rats (n ° 4 and 5) receiving 0.1 ml of the labeled 1-nitro-1H-imidazole-methyl -1,2,3-triazole-methyl-di-(2-pycolyl) amine, one via intravenous administration, the other intraperitoneally

[1] = Biodistribution after in situ direct intrahepatic injection in the rat (Example 6); assay type: in vivo
Method: They were autopsied and major organs were observed macroscopically.
(§1) The removed organs (brain, kidney, liver, heart, intestine, lung, gonads, blood, urine) were weighed and their activities were counted on NaI gamma camera.
The assessment of radioactivity was carried out on the various organs and the carcass alone, urine and whole blood.
FIG. 6 is a scintigraphic image of biodistribution after injection: it will be noted that only the liver, stomach and intestines are discernible.

[2] = Biodistribution after intravenous (intravascular) administration in the rat (Example 5); assay type: in vivo
Source text: as §1

humans = conditions: 1.3 GBq (35 mCi) dose; cited from earlier work

Dendrimer G5 {1-nitro-1H-Imidazole-methyl-1,2,3-triazol-methyl-di-(2-pycolyl)amine}
precipitation or thrombus formation at the injection site (Wistar rats): no precipitation was observed or thrombus formation
retention at the site of introduction ([1]; male rat, laparotomy and direct injection into a liver segment, listed as dendrimer conjugate): remains almost stable at the site of introduction; also recorded: has not moved a lot from the site of its deposition
hepatic binding rate ([1]; rat, direct intrahepatic injection, sacrifice at 60 min, 99mTc-labelled): 53.7%
biodistribution outside the targeted site ([1]; rat, in situ administration at a hepatic lobe, scintigraphy (FIG. 6)): negligible
initial injected dose by hepatic mass charged with the test item ([1]; rat, in situ intrahepatic injection, liver): 33.5 % DIg
liver binding after intravascular administration [2]: 1.53 % DIg

rhenium-188 hydroxyethylidene diphosphonate
systemic toxicity in humans (humans): no significant toxicity
